The results in this text go back to patent US20240360234A1 (NKARTA, published 2024).

A value given as a limit tells only on which side of the number the result lay.

The target of assay [1] is T1, CD27 (endogenous, on Jurkat cells) (UniProt P26842 20-260, limits assumed).
T1 construct: whole, on cells; also called the ligand for CD70
The assay is described as follows: flow cytometry, CD70-hFc at 2 or 10 ug/ml on native Jurkat cells, anti-human Fc-APC detection. The procedure:
FIGS. 27A-27F show data related to the ability of anti-CD70 CAR-expressing Jurkat cells to bind human bind CD70. […] Moving left to right are negative control, control for the antibody to human Fc, binding when 2 ug/ml of a CD70-hFc complex is incubated with the Jurkat cells and binding is detected with the human Fc-APC antibody, and binding when 10 ug/ml of a CD70-hFc complex is incubated with the Jurkat cells and binding is detected with the human Fc-APC antibody. […] Moving left to right is a control for the antibody to murine Fc, binding when 2 ug/ml of a CD70-murine Fc complex is incubated with the Jurkat cells and binding is detected with a murine Fc-APC antibody, and binding when 10 ug/ml of a CD70-murine Fc complex is incubated with the Jurkat cells and binding is detected with the murine Fc-APC antibody, and detection of Flag tag (present in the NK71/72 CAR constructs, but not native Jurkat cells). […] Moving left to right are negative control, control for the antibody to human Fc, binding when 2 ug/ml of a CD70-hFc complex is incubated with the Jurkat cells and binding is detected with the human Fc-APC antibody, and binding when 10 ug/ml of a CD70-hFc complex is incubated with the Jurkat cells and binding is detected with the human Fc-APC antibody. […]
A general note: Flow cytometry measures light scatter and fluorescence of single cells or particles in a stream.

Assay [2] has as its target T2, CD70-hFc complex (extracellular domain of human CD70 fused with the Fc region of human IgG1) (human) (UniProt P32970).
T2 sequence (looked up): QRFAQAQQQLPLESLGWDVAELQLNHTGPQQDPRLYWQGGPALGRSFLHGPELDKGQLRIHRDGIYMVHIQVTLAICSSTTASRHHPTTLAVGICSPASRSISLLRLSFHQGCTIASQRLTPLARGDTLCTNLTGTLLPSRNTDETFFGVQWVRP
In words: flow cytometry, CD70-hFc at 2 ug/mL on NK71-transduced Jurkat cells (about 16% NK71 positive; the cells also carry endogenous CD27).

The target of assay [3] is T2, CD70-hFc complex (extracellular domain of human CD70 fused with the Fc region of human IgG1) (human). The assay is described as follows: flow cytometry, CD70-hFc at 10 ug/mL on NK71-transduced Jurkat cells (about 16% NK71 positive; the cells also carry endogenous CD27).

T1 sequence (P26842 20-260 limits assumed): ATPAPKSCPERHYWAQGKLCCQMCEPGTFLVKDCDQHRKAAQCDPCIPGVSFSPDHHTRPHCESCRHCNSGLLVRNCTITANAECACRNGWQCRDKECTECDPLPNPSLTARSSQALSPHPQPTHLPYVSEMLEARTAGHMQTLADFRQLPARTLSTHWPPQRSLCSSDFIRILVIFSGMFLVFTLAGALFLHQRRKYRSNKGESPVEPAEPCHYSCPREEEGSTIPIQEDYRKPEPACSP

B1: CD70-hFc complex (extracellular domain of human CD70 fused with the Fc region of human IgG1) (Fc fusion, UniProt P32970 39-193, looked up)
chain: QRFAQAQQQLPLESLGWDVAELQLNHTGPQQDPRLYWQGGPALGRSFLHGPELDKGQLRIHRDGIYMVHIQVTLAICSSTTASRHHPTTLAVGICSPASRSISLLRLSFHQGCTIASQRLTPLARGDTLCTNLTGTLLPSRNTDETFFGVQWVRP
notes: range 39-193; Soluble reagent added at 2 or 10 ug/ml and detected with an anti-human Fc-APC antibody; not shown: Fc region of human IgG1, at the N-terminus of the fusion
With B1, the binding result in assay [1] is “binds”.

B2: NK71 anti-CD70 CAR (scFv, not shown: a dimerising Fc or GST; small tags and cut ends)
scFv: QVTLKESGPVLVKPTETLTLTCTVSGFSLSNARMGVTWIRQPPGKALEWLAHIFSNDEKSYSTSLKSRLTISKDTSKTQVVLTMTNMDPVDTATYYCARIRDYYDISSYYDYWGQGTLVSVSSGGGGSGGGGSGGGGSDIQMTQSPSAMSASVGDRVTITCRASQDISNYLAWFQQKPGKVPKRLIYAASSLQSGVPSRFSGSGSGTEFTLTISSLLPEDFATYYCLQLNSFPFTFGGGTKVEIN
As for B2, the percent of Jurkat cells binding CD70 in assay [2] is 50%; in assay [3] it was more than 80%.
